The target in this data set is Plasmodium lactate dehydrogenase (pLDH) (Plasmodium falciparum, UniProt Q27743 1-316). The data set is described as follows: FRET fluorescence recovery from MoS2 nanosheets on printer paper; 1 uM pLDH; 100 nM aptamer, 25 ug/mL MoS2 dried on printer paper; no recovery on lens, coffee filter, Whatman or Advantec paper; Aptamer buffer 20 mM Tris-HCl pH 8, 50 mM NaCl, 5 mM KCl, 5 mM MgCl2; pLDH in water, other proteins in 1x PBS; readings over 30 min; temperature not stated. The following applies: protein: recombinant; chain copies: 4; label: 3' FAM.
Chain of Plasmodium lactate dehydrogenase (pLDH) (Q27743 whole entry): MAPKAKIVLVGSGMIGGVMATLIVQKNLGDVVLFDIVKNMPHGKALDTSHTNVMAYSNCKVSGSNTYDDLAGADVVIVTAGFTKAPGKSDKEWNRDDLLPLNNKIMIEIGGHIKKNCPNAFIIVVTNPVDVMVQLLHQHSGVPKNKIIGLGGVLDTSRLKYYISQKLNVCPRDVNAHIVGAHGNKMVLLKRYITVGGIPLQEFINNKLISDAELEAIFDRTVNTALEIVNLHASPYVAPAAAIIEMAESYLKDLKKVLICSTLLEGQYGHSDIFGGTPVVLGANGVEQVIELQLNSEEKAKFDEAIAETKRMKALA

Data on one molecule can be found in article PMC5727500, “Paper-based MoS2 nanosheet-mediated FRET aptasensor for rapid malaria diagnosis”.

As to GTTCGATTGGATTGTGCCGGAAGTGCTGGCTCGAAC (ssDNA) [pLDH aptamer], the binding result was “binds”.
